Data reported in the nanobody polyreactivity screen of Harvey et al. (2022).

Assay: yeast display, Sf9 membrane polyspecificity reagent, FACS + sequencing; frameworks hold sequencing errors
How it was run: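 A synthetic nanobody library was expressed on Saccharomyces cerevisiae BJ5465 by galactose induction for 36–48 hours. The library was stained for 1 hour at 4 °C with 10% biotinylated, detergent-solubilized Sf9 membrane reagent and enriched with streptavidin microbeads before FACS. Low and high (top ~1%) gates were set on anti-HA fluorescence for expression and streptavidin fluorescence for reagent binding, and each polyreactivity label reflects the gate of origin.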

For “QVQLVESGGGLVQAGGSLRLSCAASGSTFYRYVMGWYRQAPGKERELVAAISKSDGSTYYADSVKGRFTISRDNAKNTVYLQMNSLIPEDTAVYYCAADGSKWDWWEYEYWGQGTQVTVSS”, the “polyreactivity (PSR sort gate)” value was “high polyreactivity”.

With “QVQLVESGGGLVQAGGSLRLSCAASGRTFVYYAMGWYRQAPGKERELVAAITSGGSTYYADSVKGRFTISRDNAKNTVYLQMNSLKPEDTAVYYCNKARVRGARFDYWGQGTQVTVSS” the “polyreactivity (PSR sort gate)” value was “high polyreactivity”.

In the case of “QVQLVESGGGLVQAGGSLRLSCAASGITFEDNAMGWYRQAPGKERELVATISDGGRTYYADSVKGRFTISRDNAKNTVYIQMNSLKPEDTAVYYCAAGYPYYHVYGYGYWGQGTQVTVSS”, the “polyreactivity (PSR sort gate)” value was “low polyreactivity”.

With “QVQLVESGGGLVQAGGSLRLSCAASGRTFGQYAMGWSRQAPGKERELVAAISARGASTYYADSVKGRFTISRDTAKNTVYLQMNSLKPEDTAVYYCNKYGRTSSTPLFYYWGQGTQVTVSS” the “polyreactivity (PSR sort gate)” value was “high polyreactivity”.

In the case of “QVQLVESGGGLVQAGGSLRLSCAASGFTFDYNAMGWSRQAPGKERELVAVISSSGSRTYYADSVKGRFTISRDNAKNTVYLQMNSLKPEDTAVYYCAAARIGTRDYWGQGTQVTVSS”, the “polyreactivity (PSR sort gate)” value was “high polyreactivity”.

With “QVQLVESGGGLVQAGGSLRLSCAASGRIFGINVMGWYRQAPGKERELVARITGRGGRTYYADSVKGRFTISRDNAKNTVYLQINSLKPEDTAFYYCAADARYEAYDYWGQGTQVTVSS” the “polyreactivity (PSR sort gate)” value was “high polyreactivity”.

With “QVQLVESGGGLVQAGGSLRLSCAASGGIFTGNAMGWYRQAPGKERELVAAINRRTGSTYYADSVKGRFTISRDNAKNTVYLQMNSLKPEDTAVYYCATRRYRSYTYDYWGQGTQVTVSS” the “polyreactivity (PSR sort gate)” value was “high polyreactivity”.

For “QVQLVESGGGLVQAGGSLRLSCAASGRIFPINVMGWYRQAPGKERELVAAISGRGGSTYYADSVKGRFTISRDNAKNTVYLQMNSLKPEDTAVYYCNAVRVSIPYIYTMDYWGQGTQVTVSS”, the “polyreactivity (PSR sort gate)” value was “high polyreactivity”.

For “QVQLVESGGGLVQAGGSLRLSCAASGRIFTRYAMGWYRQAPGKERELVAAINYRGSSTYYADSVKGRFTISRDNAKKTVYLQMNSLTPEDTAVYYCNTYGQTDTYWRYYYWGQGTQVTVSS”, the “polyreactivity (PSR sort gate)” value was “high polyreactivity”.

With “QVQLVESGGGLVQAGGSLRLSCAASGYTVWGYAMGWYRQAPGKERELVADITISGGSTYYADSVKGRFTISRDNAKNTVYLQMNSLKPDDSAVYYCAASRAFSWWLSYDYWGQGTQVTVSS” the “polyreactivity (PSR sort gate)” value was “high polyreactivity”.

For “QVQLVESGGGLVQAGGSLRLSCAASGFTFYAYTMGWYRQAPGKERELVAAIRTGSSTYYADSVKGRFTISRDNAKITVYLQMNSLKPEDTAVYYCDAPRWRRPYRYDYWGQGTQVTVSS”, the “polyreactivity (PSR sort gate)” value was “high polyreactivity”.

For “QVQLVESGGGLVQAGGSLRLSCAASGFTFSVNAMGWYRQAPGKERELVAAITRSGGRTYYADSVKGRFTISRDNAKNTVYLQMNSLKPEDTAVYYCATPRSRTDGYDYWGQGTQVTVSS”, the “polyreactivity (PSR sort gate)” value was “high polyreactivity”.

In the case of “QVQLVESGGGLVQAGGSLRLSCAASGFIFGAYAMGWYRQAPGKERELVAAITRSGGNTYYADSVKGRFTISRDNAKNTVYLQMNSLKPEDTAVYYCNVVGVYHYEDYYYWGQGTQVTVSS”, the “polyreactivity (PSR sort gate)” value was “high polyreactivity”.

In the case of “QVQLVESGGGLVQAGGSLRLSCAASGSNFVYNAMGWYRQAPGKERELVAAISGSGDSTYYADSVKGRFTISRDNAKNTVYLQMNSLKPEDTAVYYCAARMSTADFYKGDYWGQGTQVTVSS”, the “polyreactivity (PSR sort gate)” value was “low polyreactivity”.

With “QVQLVESGGGLVQAGGSLRLSCAASGSTFSTNARGWYRQAPGKERELVAAINWSTGSTHYADSVKGRFTISRDNAKNTVYLQMNSLKPEDTAVYFCAAEGPKQYDYWGQGYQVTVSS” the “polyreactivity (PSR sort gate)” value was “low polyreactivity”.

In the case of “QVQLVESGGGLVQAGGSLRLSCAASGNTFYAYAMGWYRQAPGKERELVAAIARGGNTYYADSVKGRFTISRDNAKNTVYLQMNSLKPEDTAVYYCHAYYPIRSSPYGYYYWGQGTQVTVSS”, the “polyreactivity (PSR sort gate)” value was “high polyreactivity”.

For “QFQLVESGGGLVQAGGSLRLSCAASGSTFDINDMGWYRQAPGKERELVAAITTSGASTYYADSVKGRFTISRDNAKNTVYLQMNSLKPEETAVSYCAADCLSYVWYVWYDYWGQGTKVTVSS”, the “polyreactivity (PSR sort gate)” value was “low polyreactivity”.

In the case of “QDQLVESGVGLVQAGGSLRLSCAASGYIFLLYDMGWYRQAPGKEREMVATITSGGGTYYADSVKGRVTISRDNAKNTVYLQMNSLIPEDTAVYYCNADLYRWTGRSYWDKHGSWGQGTQVTVSS”, the “polyreactivity (PSR sort gate)” value was “low polyreactivity”.

With “QVQLVESGGGLVQAGGSLRLSCAASGRTFAYNTMGWYRQAPGKERELVAAISTSGVRTFYADSVKGRFTISRDNAKNTVYLQMNSLKPEETAVYSYDWGQGTQVTVSS” the “polyreactivity (PSR sort gate)” value was “low polyreactivity”.

For “QVQLVESGGGLVQAGGSLRISCAASGITFKKNDMGWYRQAPGKERELVAAISGRGGSTYYADSVKGRFTISRDNAKNTVYLQMNSLKPEDTAVYYCAADNFKGDSYGTGTYDYWGQGTQVTVSS”, the “polyreactivity (PSR sort gate)” value was “high polyreactivity”.

In the case of “QVQLVESGGGLVQAGGSLRLSCAASGYTFDYYAMGWYRQAPGKERELVAAISGSGSRTYYADSVKGRFTISRDNAKNTVYFQMNSLKPEDTAVYYCAAEYYYSDAGNYWGQGTQVTVSS”, the “polyreactivity (PSR sort gate)” value was “high polyreactivity”.

With “QVQLVESGGCLVQAGGSLRLSCAASGIIFYTYAMGWYRQAPGKEREFVAGIRWSGSSTYYADSVKGRFTISRDNAKNTVYLQMNSLKPEDTAVYYCATGQPYGPLYSLGYGYWGQGTQVTVSS” the “polyreactivity (PSR sort gate)” value was “high polyreactivity”.

For “QVQLVESGGGLVQAGGSLRLSCAASGRTFYNYAMGWYRQAPGKERELVAAITRGGSTYYADSVKGRFTISRDNAKNTVYLQMNSLKPEDTAVYYCNAYYYIPFEGRGYSKLDYWGQGTQVTVSS”, the “polyreactivity (PSR sort gate)” value was “high polyreactivity”.

In the case of “QVQLVESGGGLVQAGGSLRLSCASSGGISYYYYAMGWYRQAPGKERELVAAISSDDDTYYADSVKGRFTISRDNAKNTVYLQMNSLKPEDTAVYYCAAEYDVVGPSIYGYLFYYWGQGTQVTVSS”, the “polyreactivity (PSR sort gate)” value was “high polyreactivity”.

With “QVQLVESGGGLVQAGGSLRLSCAASGSTFYVNAMGWYRPAPGKERELVAAITKSGGNTYYADSVKGRFTISRDNAKNTVYLQMNSLKPEDTAVYYCAAYKRYSSLTGYESWGQGTQVTVSS” the “polyreactivity (PSR sort gate)” value was “high polyreactivity”.

For “QVQLVESGGGLVQAGGSLRLSCAASGFTLARNTMGWYRQAPGKQRELVAAISGGGSTNYADSVKGRFTISRDNAKNTVYLLMYSLKPEHTAVYYCNADSNSDNNDYDYWGQGSQVTVSS”, the “polyreactivity (PSR sort gate)” value was “low polyreactivity”.

With “QVQLVESGGVLVQAGGSLRLSCAASGLTIQTNAMGWYREAPVKERELVAAISRRGSSTYYADSVKGRFTISRDNAKNTVYLQMISLKPEDTAVYYCATGGVLYPYWRGKRYGYWGQGTQVTVSS” the “polyreactivity (PSR sort gate)” value was “high polyreactivity”.

For “QVQLVESGGGLVQAGGSLRLSCAASGSIFSSYAMGWDRQAPGKERELVAAISSGGGSTYYADSVKGRFTISRDNAKHTVYLQMNSLKPEDTAVYYCNAGKEALKTTYTYDYWGQGTQVTVSS”, the “polyreactivity (PSR sort gate)” value was “high polyreactivity”.

With “QVQLVESGGGLVQAGGSLRLSCAASGFTFYANAMGWYRQAPGKERELVAAISKSGGRTYYADSVKGRFTISRDNAKNTVYLQMNSLKPEDTAVYYCAAVGSVNYEADFDYWGQGTQVTVSS” the “polyreactivity (PSR sort gate)” value was “high polyreactivity”.

For “QVQLVESGGGLVQAGGSLRLSCAASGSTFAKYTMGWYRQAPGKERELVAAISQRGGSTYYADSVKGRFTISRDNAKNTVYLQMNSLKPEDTAVYYCNVRAYAWRYEYWGQGTQVTVSS”, the “polyreactivity (PSR sort gate)” value was “high polyreactivity”.

With “QVQLVESGGGLVQAGGSLRLSCAASGSNFETNSMGGYRQAPGQERELVAVIWRGASTYYADSVKARFTISRDNAKNTVNLQMNSLKPDDTAVYYCNARPAYAGRYAYTRYYWGQGTQVTVSS” the “polyreactivity (PSR sort gate)” value was “low polyreactivity”.

For “QVQLVESGGGLVQAGGSLRLSCAASGRIIYYNAMGWYRQAPGKERDLVARISSGGSTNYADSVKGRFTFSRDNAKNTVYLQMISLKPEDTAGDYCAVAKGGLAWGVGRAGRYDYWGQGTQVTLSS”, the “polyreactivity (PSR sort gate)” value was “low polyreactivity”.

With “QVQLVESGGGLVQAGGSLRLSCAASGRIFDINAMGWYRQAPGKERELVAAINYNGSSTYYADSVKGRFTISRDNAKNTVYLEMNSLKPEDTAVYYCATEQVDVYTYDYWGQGTQVTVSS” the “polyreactivity (PSR sort gate)” value was “high polyreactivity”.

In the case of “QVQLVESGGGLVQAGGSLRLSCAASGSIFSYYAMGWYRQAPGKERELVAAITTNTGNTYYADSVKGRFTISRDNAKNTVYLQMNSLKPEDSAVYYCAKSGVADFYYTYYYWGQGTQVNVSS”, the “polyreactivity (PSR sort gate)” value was “low polyreactivity”.

With “QVHLVESGGGLVQAGGTLRLSCAASGFTFRIYAMGWYIQAPGKERELVATISWSGTSTYYADSVKGRFTISRDNAKNTVYLQMNSLKPEDTAVYYCAKDGVSVYWLNKYYYWGQGTQVTVSS” the “polyreactivity (PSR sort gate)” value was “low polyreactivity”.

With “QVQLVESGGGLVQAGGSLRLSCAASGSIFTRNAMGWYRQAPGKEREFVAAISSSGVSTYYADSVKGRFTISRDNAKNTVYLQMNSLKPEDTAVYYCAARWGTKSGRYDYWGQGTQVTVSS” the “polyreactivity (PSR sort gate)” value was “high polyreactivity”.

With “QVQLVESGGGLVQAGGSLRLSCAASGRTFARNAMGWYRQAPGKERELVAAITSIGTRTYYADSVKARFTISRDNAMNTVYLQMNSLKREDTAVYYCNKKRTADYDYWGQGTQVTVSS” the “polyreactivity (PSR sort gate)” value was “low polyreactivity”.

In the case of “QVQLVESGGGLDQAGGSLRLSCAASGRIFVGYARGWYRQAPVKERELVASITGRGTSTYYADSVKGRFTISRDNAKNTVYLQMNSLKPEDTAVYYCNALYRKYRNQWYISNYGYYYWGQGTQVTVSS”, the “polyreactivity (PSR sort gate)” value was “low polyreactivity”.

With “QVQLVESGGGLVQAGGSLRLSCATSGITFIGKYAMGWYRQAPGKERELVAAISWSGGRTYYADSVKGRFTISRDNAKNSDYLQMNSLKPEDTAVYYCAVYPRDAERYGYWGQGTQVTVSS” the “polyreactivity (PSR sort gate)” value was “high polyreactivity”.

For “QVQLLESGGGLVQSGGSLRVSCAASGSTFYAYSMGWYRQAPGKERELVAALDSGGSTYADSVKGRFPISRANAKHTVYLQMNSLKPEETAVYYCAADLITRSDYWWTGWIWEYDYWGQGTQVTVSS”, the “polyreactivity (PSR sort gate)” value was “low polyreactivity”.

With “QVQLVDSGGGLVQAGGSLRLSCAASGSIFRYKAMGWYRQAPGKERELVAAISWSGGRTYYADSVKGRFTISRDNAKNTVYLQMNSLKPEDTAVYYCAAAWYSSSRYQGIYRFAYWGQGTQVTVSS” the “polyreactivity (PSR sort gate)” value was “high polyreactivity”.

With “QVQLVESGGGLVQAGGSLRLSCAASGSTFVYYAMGWYRQAPGKERELVAAINRSGTRTYYADSVKGRFTISRDNAKNTVYLQMNSLKPEDTAVYYCAKAVQGKYGYWGQGTQVTVSS” the “polyreactivity (PSR sort gate)” value was “high polyreactivity”.

With “QVQLEESGGGLVQAGGSLRLSCAASGRTFGLYAMGWYRQAPGKERELVAAITRSDGGTNYADSVKGRFTISRDNAKNTVYVQMNSLKPEDTSVYYCAVDLGYVSDVSWYAYEYWGQGTQVTVSS” the “polyreactivity (PSR sort gate)” value was “low polyreactivity”.
